According to publication PMC2900306, “Integration Preferences of Wildtype AAV-2 for Consensus Rep-Binding Sites at Numerous Loci in the Human Genome”:

T1: MBP-Rep78 (Adeno-associated virus type 2 (AAV-2)?, UniProt Q89268 1-621)
T1 sequence: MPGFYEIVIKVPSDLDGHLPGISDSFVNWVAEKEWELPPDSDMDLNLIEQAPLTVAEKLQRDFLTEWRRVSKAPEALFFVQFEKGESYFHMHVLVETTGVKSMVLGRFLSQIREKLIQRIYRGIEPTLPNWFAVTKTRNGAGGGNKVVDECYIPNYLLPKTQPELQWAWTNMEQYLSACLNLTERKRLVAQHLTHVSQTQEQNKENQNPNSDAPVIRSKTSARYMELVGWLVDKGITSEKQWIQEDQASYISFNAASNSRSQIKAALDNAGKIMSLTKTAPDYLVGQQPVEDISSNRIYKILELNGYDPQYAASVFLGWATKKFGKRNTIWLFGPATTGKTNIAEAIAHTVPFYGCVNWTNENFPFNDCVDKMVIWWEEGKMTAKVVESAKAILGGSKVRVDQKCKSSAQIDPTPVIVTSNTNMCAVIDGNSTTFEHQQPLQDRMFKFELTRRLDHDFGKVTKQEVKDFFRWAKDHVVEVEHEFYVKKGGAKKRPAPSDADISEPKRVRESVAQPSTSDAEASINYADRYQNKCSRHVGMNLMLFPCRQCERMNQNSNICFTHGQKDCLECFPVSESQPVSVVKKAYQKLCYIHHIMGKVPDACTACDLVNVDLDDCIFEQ

B1: AAV p5 (nt 245-292) (dsDNA)
DNA 1: TCACGCTGGGTATTTAAGCCCGAGTGAGCACGCAGGGTCTCCATTTTG
DNA 2: CAAAATGGAGACCCTGCGTGCTCACTCGGGCTTAAATACCCAGCGTGA
B2: Chr. 3p24.3 (AAVS3) (dsDNA)
DNA 1: GTGAGGAGTGAGTGAGTGAGCGAGCGCACATTCATTCCCCTTGGGAAGC
DNA 2: GCTTCCCAAGGGGAATGAATGTGCGCTCGCTCACTCACTCACTCCTCAC
B3: AAV-ITR (A-stem, nt 85-133) (dsDNA)
DNA 1: GCCTCAGTGAGCGAGCGAGCGCGCAGAGAGGGAGTGGCCAACTCCATCA
DNA 2: TGATGGAGTTGGCCACTCCCTCTCTGCGCGCTCGCTCGCTCACTGAGGC

Assays:
[1] = biological target: T1, MBP-Rep78; assay: EMSA; among the highest affinities; 10 mM Mg2+; 25 mM HEPES-KOH pH 7.8, 10 mM MgCl2, 40 mM NaCl, 1 mM DTT, 2% glycerol, 12.5 ug/ml BSA, 0.01% Nonidet P40, 5 ug/ml salmon sperm DNA; 0.015 pmol probe; 20 min at 20 C; conditions: protein: recombinant; MBP fusion; label: 32P 5' end label; blunt
[2] = biological target: T1, MBP-Rep78; assay: EMSA; 10 mM Mg2+; 25 mM HEPES-KOH pH 7.8, 10 mM MgCl2, 40 mM NaCl, 1 mM DTT, 2% glycerol, 12.5 ug/ml BSA, 0.01% Nonidet P40, 5 ug/ml salmon sperm DNA; 0.015 pmol probe; 20 min at 20 C; conditions: protein: recombinant; MBP fusion; label: 32P 5' end label; blunt

| Binder | binding result [1] | binding signal [2] |
| --- | --- | --- |
| B1 | binds | – |
| B2 | – | 2 fold of AAVS1 affinity |
| B3 | binds | – |
